# Laboratory results: the supplement of paper PMC12764529
# ± gives the half width of the 95% confidence interval.
# Columns and labels:
# [1] = folding stability dG unfold (combined trypsin and chymotrypsin); higher = more stable
# Method in brief: (§1)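 Only designs with AlphaFold2 dimer inter-PAE above 15 were retained; each was a mini-protein under 80 residues with no cysteine, in a PA-tagged cDNA display construct. After digestion with trypsin and chymotrypsin and sequencing, K50 was inferred by Bayesian fitting of counts, and unfolding free energy was derived per protease or combined against a sequence-predicted unfolded-state K50 and a shared folded-state K50.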
# [2] = folding stability dG unfold from chymotrypsin proteolysis; higher = more stable
# Method in brief: as §1
# [3] = folding stability dG unfold from trypsin proteolysis; higher = more stable
# Method in brief: as §1
Sequence,folding stability dG unfold [1],folding stability dG unfold [2],folding stability dG unfold [3]
SAGGSAGGSAGELSLEEIKKLAPDETAVVKLPPSPETIVITVSTNPNGTLKIEIKRYPPGSAGGSAGGSAGG [r11_13_JUSTAS],0.674 ± 0.1 kcal/mol,0.657 ± 0.03 kcal/mol,0.566 ± 0.037 kcal/mol
SAGGSAGGSAGSKDTMYLLKVKDLGENELKETYIEVPAEKVQEVIDALSSDPNLEIEVIPSAGGSAGGSAGG [r17_50_TrMRF],1.11 ± 0.064 kcal/mol,1.09 ± 0.054 kcal/mol,1.06 ± 0.041 kcal/mol
SPLVLNPEGRTLTITLTVTVDPDVDRQVVPVLVVDEGAPRTFTFEVPKGLAGPVTFTLEIDLPPGAYVEVSA [r9_973_TrMRF],2.18 ± 0.049 kcal/mol,2.29 ± 0.066 kcal/mol,2.05 ± 0.028 kcal/mol
STLLEEAKAQAEAYLKAAGLELAPGDVVTLTVPYPGPLTLEITVHPGEKKLEITATDASTPTTHTLTFDESA [r9_426_JUSTAS],1.03 ± 0.079 kcal/mol,1.16 ± 0.074 kcal/mol,0.831 ± 0.039 kcal/mol
SAGGSAGGGMTPEEARALAEAAGYEDVEVTVLSRDPENNVTVVEVTARAPGGGGAASVGTYTAPSAGGSAGG [r6_699_JUSTAS],-0.396 ± 0.18 kcal/mol,-0.245 ± 0.27 kcal/mol,-0.77 ± 0.21 kcal/mol
SAGGMTIKPGETVEIEVGGKKITLTRNENGELTITIEDEETGETLTITVPKDTTLEEVLKKIEELLKSAGGS [r8_158_TrROS_Hall],3.61 ± 0.06 kcal/mol,3.45 ± 0.064 kcal/mol,4.04 ± 0.15 kcal/mol
PKWYEMNITINLPPDDPQKVKELKDALKKRNPDYKVKDIQFNPDDGQITINVWMPPQDQNRFQKAIKELLGS [r1_443_TrROS],2.12 ± 0.084 kcal/mol,2.31 ± 0.025 kcal/mol,1.86 ± 0.062 kcal/mol
SAGGRIEVRPLEGSGAVLVRILDPELRKKLEEKFPDVTEILFPVEGAEDIPLEELRDRAIKEIEELIDSAGG [r19_298_TrMRF],0.956 ± 0.059 kcal/mol,0.187 ± 0.056 kcal/mol,1.4 ± 0.051 kcal/mol
SAGGSAGGSAGSSPSDLKVTLKVTLPDGTVLTVVMPAHATLDDFPADRPVTVTTLETKLESAGGSAGGSAGG [r11_997_JUSTAS],1.29 ± 0.12 kcal/mol,0.656 ± 0.043 kcal/mol,1.66 ± 0.084 kcal/mol
MKPLTPDEVKELAKFIANMIRRRMRENGIKDVEIPVKVEPDPNGWYWINVSITFKYNGKPIGRFPIEIWVRS [r1_364_TrROS],3.57 ± 0.074 kcal/mol,3.781 ± 0.019 kcal/mol,3.17 ± 0.045 kcal/mol
SAGGSAGGSADPPRSVLKEERSPDGTTTYKLLEYPGERVLVVTRTPPDGTEEVVLIPEEELSAGGSAGGSAG [r3_167_JUSTAS],0.231 ± 0.086 kcal/mol,0.0217 ± 0.25 kcal/mol,0.322 ± 0.071 kcal/mol
SAGEKEVIEIEVRVTVVRRLPEDLSEEQRKALEDELEVEEVTVRVRFDLDTGRIYVEFEDGSRLEFELPSAG [r5_701_TrROS_Hall],3.16 ± 0.1 kcal/mol,3.37 ± 0.066 kcal/mol,2.67 ± 0.054 kcal/mol
SAGGSAGGSAGGETIELKLPNGKVLRVEKDKEKGKTYKIYDTKTKKLVKTFKSKEALKKASAGGSAGGSAGG [r7_72_TrROS_Hall],1.02 ± 0.11 kcal/mol,1.19 ± 0.17 kcal/mol,0.755 ± 0.07 kcal/mol
SAGGMVTITVSIEEGKGYAVITITIDDETLTIKIPIPNMTEEDIKAKAEEIAKELAEKYGIEEIKLESAGGS [r16_249_JUSTAS],3.34 ± 0.32 kcal/mol,3.37 ± 0.13 kcal/mol,3.08 ± 0.16 kcal/mol
SAGGSAGGSAGDGMIEVKVEFERLFFDENGNVTKKEKVDEIIKVPPVTIDTSTGKLTPLPSAGGSAGGSAGG [r17_413_JUSTAS],0.284 ± 0.073 kcal/mol,0.229 ± 0.021 kcal/mol,0.261 ± 0.051 kcal/mol
SAMVTARVSDSVLRAYRLPDGYVRLVVFDPKTGEPVVEFVVPEDLITDIVEVGDKAVIHVDVKEEDLKLSAG [r14_755_TrMRF],1.69 ± 0.077 kcal/mol,1.98 ± 0.064 kcal/mol,1.28 ± 0.043 kcal/mol
SAGGMVTLTYTDLVEEDPEVKAAKARELAEELREKGYTVTDATFDPEAGTLTITVSADDATLEEIAASAGGS [r8_344_TrMRF],1.27 ± 0.099 kcal/mol,1.1 ± 0.065 kcal/mol,1.26 ± 0.071 kcal/mol
SKDPNNEWVVIKFEVTIPVPPGQKPITADEIASQVRQIMQNHGMEITSVEVEYRGNQVTVSVEIVIPKKASA [r9_1134_TrROS],3.22 ± 0.18 kcal/mol,3.32 ± 0.11 kcal/mol,3.23 ± 0.19 kcal/mol
SAGGSAGGRKTRRLVLEVDDIPEGVSAEELTEEELRRLGLPPDARIRVVRRPDGRLLVVIEVRESAGGSAGG [r6_551_TrROS_Hall],2.42 ± 0.051 kcal/mol,2.71 ± 0.0092 kcal/mol,1.64 ± 0.022 kcal/mol
SAGGMVDVTITFTKPDGTPETRPIPASSLPLEELVARIRALREAGVEAEVELPPSLPEEVREALARLLSAGG [r13_251_JUSTAS],1.96 ± 0.053 kcal/mol,2.09 ± 0.071 kcal/mol,1.78 ± 0.039 kcal/mol
SAGGSKELKPGDIITFPKSVSEEEIKEKVKELMEKYGIKGIISIEKKSPNSYIVKIEYPDGNPLAISAGGSA [r2_168_JUSTAS],1.72 ± 0.15 kcal/mol,1.34 ± 0.081 kcal/mol,2.1 ± 0.074 kcal/mol

Sequence,folding stability dG unfold [1],folding stability dG unfold [2],folding stability dG unfold [3]
SAGGSAGGSKEVKTIKVEITITDKNGKKITVKAEIVYDKKTKKYYIKIRNKKTNKTYIIELKLSAGGSAGGS [r20_71_TrROS_Hall],4.47 ± 0.08 kcal/mol,4.753 ± 0.047 kcal/mol,3.29 ± 0.088 kcal/mol
SAGGMGLEELAKLSPEEIARRLAAEAKAAAAAAGTPDAAVTLEVTLEDKPIVVEVGADGTIRRVELGSAGGS [r16_431_JUSTAS],0.922 ± 0.063 kcal/mol,1.16 ± 0.024 kcal/mol,0.442 ± 0.1 kcal/mol
SAGGSAGGSAGETVTLTLTVTVTRTYYDAETGEEVEQETETRTLTLTMSKEELERLLKELSAGGSAGGSAGG [r17_283_TrROS_Hall],4.44 ± 0.17 kcal/mol,4.66 ± 0.11 kcal/mol,3.28 ± 0.13 kcal/mol
MRLRLTFRLPDGTEFRVERVEVLRVEPRGDRVVIPVRAYFTPEERRRLEELIPGLRDRPPLVVEVEIVLTGS [r1_35_TrMRF],3.96 ± 0.072 kcal/mol,4.38 ± 0.055 kcal/mol,3.05 ± 0.083 kcal/mol
SAGGMTLDELRALLAAGKVTIEPVAPDRWLVTVRGPDGEEFTFEFESLEELLDALRAIPGLEVEVRPVSAGG [r13_600_TrROS_Hall],3.71 ± 0.044 kcal/mol,3.905 ± 0.036 kcal/mol,3.29 ± 0.1 kcal/mol
SAGGSAGGSAGGFKLPPGKPIEFPIKHGGEPYPVEIWRDPNKLMIHFPGNNQWIPADDIKSAGGSAGGSAGG [r7_37_TrROS],-0.931 ± 0.58 kcal/mol,-0.589 ± 0.87 kcal/mol,-0.828 ± 0.45 kcal/mol
SMKPPVVEIKAKVVEVKEVNGKLYVKVEITEIKDAPPEVKELIKEGKTILVEVKPGEEVKEGDEVTIKIVSA [r9_557_TrROS_Hall],2.32 ± 0.3 kcal/mol,2.03 ± 0.22 kcal/mol,2.46 ± 0.21 kcal/mol
SAGGLDPDGKIRWQPITITIEIPIPPGDEELANKIADWLRDLGIEVEIKRNPNGYIQITVEFWVLVIDSAGG [r13_702_TrROS],4.89 ± 0.31 kcal/mol,5.03 ± 0.29 kcal/mol,3.82 ± 0.33 kcal/mol
SAGGSAMYYRFEIPRPDGVIEEIWIKMTPEEAKALVEALEADPNVASVKVEAITEEEARKLGIFENSAGGSA [r15_39_JUSTAS],4.34 ± 0.18 kcal/mol,4.46 ± 0.12 kcal/mol,4.17 ± 0.28 kcal/mol
SAGGKPAKPTRLDFPDDDVKTVPANTKIILTRPDGSKLVIELPEEEFTAKPDEWVFETPTSKITFPIASAGG [r13_643_TrMRF],0.725 ± 0.21 kcal/mol,0.657 ± 0.15 kcal/mol,0.767 ± 0.092 kcal/mol
SAGMILTIRPEDGSEEIIPVPKEDIEKLIEDLEKKGIKVLSMTTSPDGVSTIPTQYPDGKKMTITVHLDSAG [r5_645_JUSTAS],0.677 ± 0.16 kcal/mol,0.677 ± 0.22 kcal/mol,0.707 ± 0.098 kcal/mol
SAGGEKRYLVRVRAYYRFEEGERELDLEVEVTSPEEAKELLEKIATRLRKLYPDRIRIEVEIRPLEESAGGS [r16_475_TrMRF],4.94 ± 0.14 kcal/mol,5.1 ± 0.12 kcal/mol,4.53 ± 0.17 kcal/mol
SAGGSAGGSKIPPGEPVTLPIFFIIWDPENGRPYAMRMEITFDAPDGNITKMNEEVIPPGQPFSAGGSAGGS [r12_868_TrROS],1.54 ± 0.14 kcal/mol,1.49 ± 0.17 kcal/mol,1.5 ± 0.056 kcal/mol
SAGGAVYRNPATGEWYEPGMTEEEREARARAALPPPTVTITVTVTVVFEDNGTTVTATATVTLTVEGSAGGS [r16_387_TrROS_Hall],3.44 ± 0.1 kcal/mol,3.83 ± 0.12 kcal/mol,2.97 ± 0.11 kcal/mol
SAGGSMPYKTLEESESEIYDPSNGNVKYKVKTETILLPDGTILVKETIYDPETGTTETKTYTIPKGSAGGSA [r2_13_JUSTAS],1.79 ± 0.1 kcal/mol,1.82 ± 0.13 kcal/mol,1.54 ± 0.14 kcal/mol
MKAHVTVVDLEDRYRARIELELPDGRVLVFEFEFDSWEEAIEFIRGLIAALPEDEVEIDHIEFLPPDGDPSS [r1_169_TrMRF],4.46 ± 0.1 kcal/mol,4.73 ± 0.051 kcal/mol,3.92 ± 0.091 kcal/mol
SAGGSAGGSANMPPEELADWIADKFQQRHGHPVKEIEVEHDPENNNYTITVEFDDKERTITLSAGGSAGGSA [r18_145_TrROS],0.591 ± 0.22 kcal/mol,0.839 ± 0.28 kcal/mol,-0.271 ± 0.15 kcal/mol
SAGGSAGGSIKPGEEVTINFLVPPGNIPEFANELMKQDGIKDIEVKYQPFPNWYMVDITIRVKSAGGSAGGS [r12_993_TrROS],0.52 ± 0.096 kcal/mol,-0.0266 ± 0.14 kcal/mol,0.863 ± 0.029 kcal/mol
SAGGSAGGKIRVEVEVEPLPGPEEGGRLLRVRVRVYNENGELLEEIEFPARSPEEAEERLRKAASAGGSAGG [r6_974_TrMRF],3.15 ± 0.14 kcal/mol,3.46 ± 0.082 kcal/mol,2.05 ± 0.044 kcal/mol
SPGWYKVDIEIPMKEIQEEFGDPDKPITADRIKERVKKIAETIGFEVRDVEIEMDPNGWVRVTVTIPVKNSA [r9_52_TrROS],3.64 ± 0.19 kcal/mol,3.89 ± 0.11 kcal/mol,3.77 ± 0.3 kcal/mol
IETGEYDIEIELPAPNGYKVKVKFKFVKVDPENGKVYVEVELEVTLPGGKPIKLPLRLVMPAEEIKKFLESS [r1_371_TrMRF],4.64 ± 0.092 kcal/mol,4.94 ± 0.053 kcal/mol,2.98 ± 0.072 kcal/mol
